Assay results reported in publication PMC10373098 (Nature structural & molecular biology, 2022).

T1: band 3 anion exchanger (human (endogenous in erythrocytes), UniProt P02730 1-911)
T1 sequence (looked up): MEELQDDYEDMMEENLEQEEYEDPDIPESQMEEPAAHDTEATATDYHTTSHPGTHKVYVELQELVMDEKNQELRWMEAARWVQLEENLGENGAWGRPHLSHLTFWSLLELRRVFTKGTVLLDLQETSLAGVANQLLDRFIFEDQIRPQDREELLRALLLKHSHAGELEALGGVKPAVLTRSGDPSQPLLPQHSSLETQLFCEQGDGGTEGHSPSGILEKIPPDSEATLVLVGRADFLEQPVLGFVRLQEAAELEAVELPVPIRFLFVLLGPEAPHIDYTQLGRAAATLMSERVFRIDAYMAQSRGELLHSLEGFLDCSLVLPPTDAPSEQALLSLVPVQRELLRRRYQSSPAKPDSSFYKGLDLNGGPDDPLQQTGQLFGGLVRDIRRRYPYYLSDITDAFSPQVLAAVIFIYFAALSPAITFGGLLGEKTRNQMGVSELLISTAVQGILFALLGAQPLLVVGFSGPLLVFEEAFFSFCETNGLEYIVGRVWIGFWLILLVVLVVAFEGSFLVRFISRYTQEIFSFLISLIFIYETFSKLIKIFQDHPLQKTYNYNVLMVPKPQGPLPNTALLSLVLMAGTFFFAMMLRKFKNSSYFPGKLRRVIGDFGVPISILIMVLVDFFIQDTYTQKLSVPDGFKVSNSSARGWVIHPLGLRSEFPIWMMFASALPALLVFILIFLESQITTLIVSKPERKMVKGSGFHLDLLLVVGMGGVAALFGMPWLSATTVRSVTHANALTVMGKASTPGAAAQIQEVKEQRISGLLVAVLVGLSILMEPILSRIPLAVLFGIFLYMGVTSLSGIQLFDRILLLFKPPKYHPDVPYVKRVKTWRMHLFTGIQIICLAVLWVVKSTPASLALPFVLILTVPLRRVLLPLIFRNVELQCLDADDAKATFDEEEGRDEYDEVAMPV

T2: RhCE (human (endogenous in erythrocytes), UniProt P18577 1-417)
T2 sequence (looked up): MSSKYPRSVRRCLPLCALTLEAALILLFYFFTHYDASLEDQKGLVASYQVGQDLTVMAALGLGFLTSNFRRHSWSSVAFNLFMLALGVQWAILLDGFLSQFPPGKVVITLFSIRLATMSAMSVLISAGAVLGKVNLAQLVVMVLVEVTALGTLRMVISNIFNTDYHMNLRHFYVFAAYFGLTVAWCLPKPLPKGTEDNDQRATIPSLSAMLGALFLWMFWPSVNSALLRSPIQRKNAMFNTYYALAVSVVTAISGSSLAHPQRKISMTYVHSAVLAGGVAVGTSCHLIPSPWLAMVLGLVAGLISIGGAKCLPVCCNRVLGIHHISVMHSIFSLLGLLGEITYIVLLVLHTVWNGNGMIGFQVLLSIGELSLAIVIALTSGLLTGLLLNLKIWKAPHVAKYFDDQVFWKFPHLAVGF

B1: glycophorin A (natural protein, human (endogenous in erythrocytes), UniProt P02724 20-150, looked up)
chain: LSTTEVAMHTSTSSSVTKSYISSQTNDTHKRDTYAATPRAHEVSEISVRTVYPPEEETGERVQLAHHFSEPEITLIIFGVMAGVIGTILLISYGIRRLIKKSPSDVKPLPSPDTDVPLSSVEIENPETSDQ
B2: aquaporin-1 (natural protein, human (endogenous in erythrocytes), UniProt P29972 1-269, looked up)
chain: MASEFKKKLFWRAVVAEFLATTLFVFISIGSALGFKYPVGNNQTAVQDNVKVSLAFGLSIATLAQSVGHISGAHLNPAVTLGLLLSCQISIFRALMYIIAQCVGAIVATAILSGITSSLTGNSLGRNDLADGVNSGQGLGIEIIGTLQLVLCVLATTDRRRRDLGGSAPLAIGLSVALGHLLAIDYTGCGINPARSFGSAVITHNFSNHWIFWVGPFIGGALAVLIYDFILAPRSSDLTDRVKVWTSGQVEEYDLDADDINSRVEMKPK
modifications: lipid-like density attached to Cys-87, assigned as a palmitoylation site
B3: RhAG (natural protein, human (endogenous in erythrocytes), UniProt Q02094 1-409, looked up)
chain: MRFTFPLMAIVLEIAMIVLFGLFVEYETDQTVLEQLNITKPTDMGIFFELYPLFQDVHVMIFVGFGFLMTFLKKYGFSSVGINLLVAALGLQWGTIVQGILQSQGQKFNIGIKNMINADFSAATVLISFGAVLGKTSPTQMLIMTILEIVFFAHNEYLVSEIFKASDIGASMTIHAFGAYFGLAVAGILYRSGLRKGHENEESAYYSDLFAMIGTLFLWMFWPSFNSAIAEPGDKQCRAIVNTYFSLAACVLTAFAFSSLVEHRGKLNMVHIQNATLAGGVAVGTCADMAIHPFGSMIIGSIAGMVSVLGYKFLTPLFTTKLRIHDTCGVHNLHGLPGVVGGLAGIVAVAMGASNTSMAMQAAALGSSIGTAVVGGLMTGLILKLPLWGQPSDQNCYDDSVYWKVPKTR
B4: protein 4.2 (natural protein, human (endogenous in erythrocytes), UniProt P16452 1-691, looked up)
chain: MGQALGIKSCDFQAARNNEEHHTKALSSRRLFVRRGQPFTIILYFRAPVRAFLPALKKVALTAQTGEQPSKINRTQATFPISSLGDRKWWSAVVEERDAQSWTISVTTPADAVIGHYSLLLQVSGRKQLLLGQFTLLFNPWNREDAVFLKNEAQRMEYLLNQNGLIYLGTADCIQAESWDFGQFEGDVIDLSLRLLSKDKQVEKWSQPVHVARVLGALLHFLKEQRVLPTPQTQATQEGALLNKRRGSVPILRQWLTGRGRPVYDGQAWVLAAVACTVLRCLGIPARVVTTFASAQGTGGRLLIDEYYNEEGLQNGEGQRGRIWIFQTSTECWMTRPALPQGYDGWQILHPSAPNGGGVLGSCDLVPVRAVKEGTLGLTPAVSDLFAAINASCVVWKCCEDGTLELTDSNTKYVGNNISTKGVGSDRCEDITQNYKYPEGSLQEKEVLERVEKEKMEREKDNGIRPPSLETASPLYLLLKAPSSLPLRGDAQISVTLVNHSEQEKAVQLAIGVQAVHYNGVLAAKLWRKKLHLTLSANLEKIITIGLFFSNFERNPPENTFLRLTAMATHSESNLSCFAQEDIAICRPHLAIKMPEKAEQYQPLTASVSLQNSLDAPMEDCVISILGRGLIHRERSYRFRSVWPENTMCAKFQFTPTHVGLQRLTVEVDCNMFQNLTNYKSVTVVAPELSA
modifications: N-terminal glycine myristoylated

Tests used:
Assay in all cases: cryo-EM structure
band 3 anion exchanger [1] = target: T1, band 3 anion exchanger
protein 4.2 = target: B4
RhCE = target: T2, RhCE
cryo-EM structure = target: the molecule itself
band 3 anion exchanger [2] = target: T1, band 3 anion exchanger; remark: listed apart in the source

## B1
Band 3 anion exchanger [1]
  stoichiometry N: 1 GPA per band 3 protomer

## B2
Protein 4.2
  binding result: binds

## B3
RhCE
  stoichiometry N: 2 RhAG per RhCE
cryo-EM structure
  binding result: binds

## B4
Band 3 anion exchanger [2]
  binding result: binds
